Publication PMC1964548, “Structural and Functional Analyses of Five Conserved Positively Charged Residues in the L1 and N-Terminal DNA Binding Motifs of Archaeal RadA Protein” (PLoS ONE, 2007)

Target: the molecule itself
Test: crystal structure; hanging drop vapor diffusion; SsoRadA 24 mg/ml in 30 mM Tris-HCl pH 8.0; reservoir 100 mM KCl, 25 mM MgCl2, 15% isopropanol, 50 mM sodium cacodylate pH 6.0; space group P3_(1), 1.93 Å; 3_(1) overwound right-handed filament

B1: Sulfolobus solfataricus RadA (natural protein, UniProt Q55075 1-324, looked up)
chain: MSNEVEQKKNIKTINDLPGISQTVINKLIEAGYSSLETLAVASPQDLSVAAGIPLSTAQKIIKEARDALDIRFKTALEVKKERMNVKKISTGSQALDGLLAGGIETRTMTEFFGEFGSGKTQLCHQLSVNVQLPPEKGGLSGKAVYIDTEGTFRWERIENMAKALGLDIDNVMNNIYYIRAINTDHQIAIVDDLQELVSKDPSIKLIVVDSVTSHFRAEYPGRENLAVRQQKLNKHLHQLTRLAEVYDIAVIITNQVMARPDMFYGDPTVAVGGHTLYHVPGIRIQLKKSRGNRRIARVVDAPHLPEGEVVFALTEEGIRDAEE
notes: RadA of Sulfolobus solfataricus; Forms a helical filament in the crystal (three protomers per turn, 98 Å pitch; three protomers in the asymmetric unit, each belonging to a filament of its own); also called SsoRadA; wild-type SsoRadA; source: expressed and purified as described previously [16]
- binding result: binds
